The series concerns the molecule itself. Put plainly: SDS-PAGE of semi-denatured protein.

B1: M. tuberculosis aspartate decarboxylase PanD, wild type (enzyme)
chain: MLRTMLKSKIHRATVTCADLHYVGSVTIDADLMDAADLLEGEQVTIVDIDNGARLVTYAITGERGSGVIGINGAAAHLVHPGDLVILIAYATMDDARARTYQPRIVFVDAYNKPIDMGHDPAFVPENAGELLDPRLGVG
For the protein B1, the binding result is “binds”.

The record behind these values is PMC5734868 (ACS infectious diseases, 2017).
